# Results reported in article PMC3928310, “Model of a DNA-Protein Complex of the Architectural Monomeric Protein MC1 from Euryarchaea”.
# T1: MC1 WT (Methanosarcina thermophila CHTI55, UniProt P12770 1-93)
# T1 sequence: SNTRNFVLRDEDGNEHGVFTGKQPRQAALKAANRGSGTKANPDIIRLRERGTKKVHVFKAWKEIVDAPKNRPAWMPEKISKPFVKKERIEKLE
# Legend:
# [1] = biological target: T1, MC1 WT; assay: EMSA; EMSA: 10 mM Tris-HCl pH 7.5, 150 mM NaCl, 1 mM EDTA, 15 ug/ml BSA, 8% glycerol, 15 min at 20 C, 0.1 nM DNA, TBE gel; NMR PRE: 10 mM phosphate pH 6, 100 mM NaCl, 10% D2O; settings: protein: recombinant; label: 5'-32P on one strand; blunt
# [2] = biological target: T1, MC1 WT; assay: NMR chemical shift perturbation; EMSA: 10 mM Tris-HCl pH 7.5, 150 mM NaCl, 1 mM EDTA, 15 ug/ml BSA, 8% glycerol, 15 min at 20 C, 0.1 nM DNA, TBE gel; NMR PRE: 10 mM phosphate pH 6, 100 mM NaCl, 10% D2O; settings: protein: recombinant; blunt
# [3] = biological target: T1, MC1 WT; assay: NMR PRE; Mn2+ (EDTA-chelated probe); protein:DNA 1:1.2; EMSA: 10 mM Tris-HCl pH 7.5, 150 mM NaCl, 1 mM EDTA, 15 ug/ml BSA, 8% glycerol, 15 min at 20 C, 0.1 nM DNA, TBE gel; NMR PRE: 10 mM phosphate pH 6, 100 mM NaCl, 10% D2O; settings: protein: recombinant; label: paramagnetic dT-EDTA-Mn2+; blunt
binder,measurement,setting,value
26 bp EMSA duplex (dsDNA) DNA 1: GCCTCAAAAACACACACCCCCGACAG DNA 2: CTGTCGGGGGTGTGTGTTTTTGAGGC,Kd,[1],1.2 ± 0.1 nM
15 bp NMR duplex (dsDNA) DNA 1: AAAAACACACACCCA DNA 2: TGGGTGTGTGTTTTT,binding result,[2],binds
"DNA1* (dsDNA, dT-EDTA (Mn2+) at the 5'-terminal T16 of strand 2) DNA 1: AAAAACACACACCCA DNA 2: TGGGTGTGTGTTTTT",binding result,[3],binds
